Assay: soluble on expression in E. coli; label from the status in PepcDB or PDB records

Row | Sequence | soluble on expression in E. coli
1 | GMYNPVGVAAIGLGRWAYVMADAYTKSEKLKLVTCYSRTEDKREKFGKRYNCAGDATMEALLAREDVEMVIITVPNDKHAEVIEQCARSGKHIYVEKPISVSLDHAQRIDQVIKETGVKFLCGHSSRRLGALRKMKEMIDTKEIGEVSSIEAVFSNERGLELKKGNWRGEPATAPGGPLTQLGVHQIDNLQFLLGPVARVFNFGKPMYTEVENITVNQTLLEFEDGKQAYLGTNWACPGVFSINVYGTKANLFYQLDFSWWSNSDVTDEHSTLIKREFASMSDDPDNRILRDVKVDFESVDHLRVEVEEVADVIRNGGETEIGAEASLRNLAVVLAAVKSVHEKRPVEIAEIIG | soluble
2 | MTDEAFAQADPEWLALIRAAREWLSGPLGQLLLEEERRVLDEELGRYFGGYLVHYGPSAQNPPVAPQVQRNVRLGAPLPGVEIVCEEQAWPLSEHAADVVVLQHGLDFCLSPHGLLREAASSVRPGGHLLIIGINPWSAWGVRHVFARDALRKARCISSSRVADWLNLLGFALEKRRFGCYRPPLASAAWQSRLAGLESLGEGRQSPGGGFYLLVARKLVVGLRPLRQVRRDPIGKLIPMPMAKVSRNTQDCS | not soluble
3 | MLKLFSAFRKNKIWDFNGGIHPPEMKTQSNGTPLRQVPLAQRFVIPLKQHIGAEGELCVSVGDKVLRGQPLTRGRGKMLPVHAPTSGTVTAIAPHSTAHPSALAELSVIIDADGEDCWIPRDGWADYRTRSREELIERIHQFGVAGLGGAGFPTGVKLQGGGDKIETLIINAAECEPYITADDRLMQDCAAQVVEGIRILAHILQPREILIGIEDNKPQAISMLRAVLADSNDISLRVIPTKYPSGGAKQLTYILTGKQVPHGGRSSDIGVLMQNVGTAYAVKRAVIDGEPITERVVTLTGEAIARPGNVWARLGTPVRHLLNDAGFCPSADQMVIMGGPLMGFTLPWLDVPVVKITNCLLAPSANELGEPQEEQSCIRCSACADACPADLLPQQLYWFSKGQQHDKATTHNIADCIECGACAWVCPSNIPLVQYFRQEKAEIAAIRQEEKRAAEAKARFEARQARLEREKAARLERHKSAAVQPAAKDKDAIAAALARVKEKQAQATQPIVIKAGERPDNSAIIAAREARKAQARAKQAELQQTNDAATVADPRKTAVEAAIARAKARKLEQQQANAEPEQQVDPRKAAVEAAIARAKARKLEQQQANAEPEEQVDPRKAAVEAAIARAKARKLEQQQANAEPEQQVDPRKAAVEAAIARAKARKREQQPANAEPEEQVDPRKAAVEAAIARAKARKLEQQQANAVPEEQVDPRKAAVAAAIARAQAKKAAQQKVVNEDLEHHHHHH | soluble
4 | LLTLSDIGLSVHRYSNRLDVFTQALEGGKALGDVSVDVYDDNGKVVAQGKTDSDGHARLPLPAKAAVVLAHKDEQTSMLRLNSSALDLAEFDISGPQAHPLQFFIFGPRDLYRPGETVLLNGLLRDSDGKNVKPQPITVEVRRPDDQVSRKFVWEADSSGFYQYQLQLAEEAPTGRWQLVFDLGDGKPQLYEFKVEDFLPERLALELKGSDAPVAPADNPEFDITGRYLYGAPASGNTLTGQVYVRPLREAVAKLPGYQFGSITE | not soluble
5 | EEIFCHVYITEHSYVSVKAKVSSIAQEILKVVAEKIQYAEEDLALVAITFSGEKHELQPNDLVISKSLEASGRIYVYRKDLADTLNPFAEN | soluble
6 | MGSDKIHHHHHHMAQYSAEFKQAKVLVLGDVMLDRYWFGATNRISPEAPVPVVRVQENEERAGGAANVAMNIASLNVPVQLMGLIGQDETGSALSLLLEKQKIDCNFVALETHPTITKLRILSRHQQLLRLDFEEDFNNVDCKDLLAKLESAVKNYGALILSDYGKGTLKDVQKMIQIARKANVPVLIDPKGTDFERYRGATLLTPNMSEFEAVVGKCNTEEEIIEKGLKLISDIELTALLVTRSEKGMTLLRPNQEPYHLPTVAKEVFDVTGAGDTVISVLATALADGRSFEESCYLANVAAGIVVGKLGTSTVSTVELENAIHARPETGFGIMSEAELKDAVAQAKARGEKIVMTNGCFDILHPGHISYLENARKLGDRLIVAVNSDDSVKRLKGESRPINNLENRMAVLAGLASVDWLVPFTEDTPQRLIGEILPDLLVKGGDYKPEEIAGSKEVWANGGDVKVLNFENGCSTTNVIEKIKLLKD | not soluble
7 | MSLTTRVIALDLDGTLLTPKKTLLPSSIEALARAREAGYQLIIVTGRHHVAIHPFYQALALDTPAICCNGTYLYDYHAKTVLEADPMPVNKALQLIEMLNEHHIHGLMYVDDAMVYEHPTGHVIRTSNWAQTLPPEQRPTFTQVASLAETTQQVNAVWKFALTHDDLPQLQHFGKHVEHELGLECEWSWHDQVDIAHGGNSKGKRLTKWVEAQGWSMENVVAFGDNFNDISMLEAAGTGVAMGNADDAVKARANIVIGDNTTDSIAQFIYSHLIEGHHHHHH | not soluble

— the DeepSol protein solubility set
